The record followed here is the supplement of paper PMC12042874.

± gives the uncertainty stated by the source.

A short description of this series: amyloid nucleation score (Sup35N fusion, yeast selection) (log enrichment); library NNK2; higher = more nucleation; inactive = no reads after selection. Put shortly: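 The nucleation score is the DiMSum log enrichment of output over input reads, centred on the mode score of non-aggregating sequences. Only sequences with 100 or more input reads were scored, using Illumina sequencing of input and output plasmid inserts. Psi-negative yeast expressing Sup35N fused to peptides of 20 random codons were induced 24 hours with 100 μM copper sulfate and grown 7 days at 30°C on medium lacking adenine and uracil.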
The substance IDVGYIYGMVCWQTG displayed an amyloid nucleation score of 4.08 ± 0.083.

Turning to SFGHATLYSFH, the amyloid nucleation score was -0.058 ± 0.65. Turning to GPLLVIWVRTLGRELG, the amyloid nucleation score stood at 0.841 ± 0.26. For GSGSVAEIMRNVFLVCSW the value was -0.115 ± 0.34. As for FRYRKSLDCNAMVPERQTGT, the amyloid nucleation score amounted to 1.11 ± 0.53. As to IDSDSFHDRSTSRHLFNGLA, the amyloid nucleation score result is “inactive”. HLSGYKLLIKSVYFE had an amyloid nucleation score of 3.63 ± 0.067. Substance GAGLRCLFGNSGYGERCVTM registered an amyloid nucleation score of 0.82 ± 0.44. Substance MSLWRVCCFSWPKKVYSNFR registered an amyloid nucleation score of 1.2 ± 0.1.

As to YRWNYWFVVMMRPSSEDYLR, the amyloid nucleation score worked out at 4.951 ± 0.047. For MIVNYFWIRCAPLFWQAIPS the value was 3.63 ± 0.15; for SCYRFSRSRS, -0.359 ± 0.49; for IKHKLWRAYYCSESTLSVLS, -1.03 ± 0.28.

Take DVHFCNNLLLKRRRGSVVA: the amyloid nucleation score is -0.153 ± 0.41. For ASVENGSALIIRESDMSGGN, the amyloid nucleation score worked out at 0.556 ± 0.43. YNLSVFQVITAPHEGDNRAW had an amyloid nucleation score of 4.55 ± 0.049. As for MGGNLCVPRTLYSAIWLLSR, the figure is -1.23 ± 0.44. As for RGGSIIYHALVRVVFFLSVY, the figure is -1.01 ± 0.64; as for LKCHVLGVHCAL, 0.205 ± 0.19. On to TGHFKKYVKGEGADDSNCAL, for which the amyloid nucleation score was found to be 0.347 ± 0.29.

Substance DITYQHDGVIE showed an amyloid nucleation score of -0.789 ± 0.32. As for IHLIREVAQRFTSCA, the figure is 0.7 ± 0.28; as for TVIGLLIIVVGSYDVCSNVW, 6.163 ± 0.041. As for MVYPRYVSDTKQSRLLAGRE, the figure is 0.604 ± 0.57.

With SFCYLLSTISVTIALVKTRG, the amyloid nucleation score was -0.271 ± 0.5.

For the substance LVWIEMVSF, the amyloid nucleation score is -0.544 ± 0.78. As for LNVDGAFGKTAWYFRFVIQV, the figure is -0.127 ± 1; as for SISTSTGLRRHPYNGPKIGM, -0.221 ± 0.32; as for NWIPGVVEKRSRLSGFWSWL, 0.657 ± 0.23. In turn, LTYLVADLL had an amyloid nucleation score of -0.142 ± 0.79.

In the case of SDISNQLMFFGRWAPRVLVD, the amyloid nucleation score was -0.35 ± 1.1. Substance CCMCCNDYCRPCFREGVWIG returned an amyloid nucleation score of -0.121 ± 1.1. With RVKEMWGVYVGQHGYTANAL, the amyloid nucleation score was determined as 0.842 ± 0.47.

In the case of RGNHNHGLWNPKNSMVMWEG, the amyloid nucleation score came out at 0.062 ± 0.48. FLRYHNAGALENIRYVSCLC displayed an amyloid nucleation score of -0.253 ± 0.56.

Turning to LMLVVQALNHAYLLQVMSCT, the amyloid nucleation score was found to be 0.805 ± 0.67. With VSRII, the amyloid nucleation score entry is “inactive”. Regarding ALTFTGV, the amyloid nucleation score turned out to be 0.286 ± 0.41. Turning to VGKVFLIPGSFYEIRLMTYF, the amyloid nucleation score was found to be 1.62 ± 0.13.

For GCGSPQSTFPRERCQVLVTA, the amyloid nucleation score came to 0.829 ± 0.49.

As for RIRCIVGSVPCMAASKHDGR, the amyloid nucleation score worked out at 0.783 ± 0.22. In turn, SPSTAMFGPMYSVCIHCEYL came in with an amyloid nucleation score of 7.395 ± 0.051. As for QWVDQVYIAETIVPLSNKVV, the amyloid nucleation score was -0.398 ± 1. On to ETLAVLRIPCSRLYDHIYNF, for which the amyloid nucleation score is -0.791 ± 0.78. For KSVRIWPSVSAGTRRLKQS the value was “inactive”; for SVGSGPVSSLRRKHDRGDTP, 0.253 ± 0.35; for SGFFAVGILITTLPLRGNER, 0.22 ± 0.45. In turn, LKSEALDGAADCRGCYSGPL displayed an amyloid nucleation score of 0.374 ± 0.64.

In turn, LYNEMVRSLVGAICRSRQGY yielded an amyloid nucleation score of -0.297 ± 1.1. With WWDTRRHVQCCSAEAIDFME, the amyloid nucleation score was found to be 1.3 ± 0.47.

In turn, LVVWPMNQPLPLSNRPTPKR yielded an amyloid nucleation score of 1.83 ± 0.3.

In the case of GATGGLSVCELVRCSELNRG, the amyloid nucleation score turned out to be 0.985 ± 0.37. In the case of QLYKRSE, the amyloid nucleation score worked out at 0.256 ± 0.27. In the case of SASWGLQSYNSRCGRLTNRF, the amyloid nucleation score is 0.524 ± 0.81. WLYDPSIMWNIGWVSNMMHQ came in with an amyloid nucleation score of -0.454 ± 0.24. The substance GHIMKCGATRQYHCEDP showed an amyloid nucleation score of -0.614 ± 0.79. For NPLHP the value was 0.116 ± 0.24; for LKYDSKPSRVWMEICLYDAR, 7.192 ± 0.054.

For RRRRSGLCRAYVNVLNARTR, the amyloid nucleation score stood at 0.79 ± 0.41. For TNCHLFVSFFLCVDVYTVVC the value was 4.72 ± 0.063; for FVDRTCLVRSMLRVLPITGG, 0.065 ± 0.61; for CPSYSTMSTGFVERVLPTGR, 1.53 ± 0.39. In turn, SLGNVELRQ displayed an amyloid nucleation score of -0.679 ± 0.29. On to DSCCMSYSRQNCTY, for which the amyloid nucleation score is 0.218 ± 0.8.

The substance YCKFYWNHNVYCLVALWRLW registered an amyloid nucleation score of -0.149 ± 0.79. Turning to WFISPKDKGRASIHLNEYRW, the amyloid nucleation score came to 3.97 ± 0.045.

For RSPRHQNQDPRLKGRNARSP, the amyloid nucleation score came to 2.49 ± 0.086. With VIVVRNQRKFVTSDLPLKVC, the amyloid nucleation score worked out at 1.04 ± 0.35. NDDTDQLSTSSIGRRMRMR returned an amyloid nucleation score of 0.662 ± 0.81. CIEMFFETVFTKGLSRYACW came in with an amyloid nucleation score of -0.55 ± 0.3. For CLLWVAQYVQAMEGVALSVG, the amyloid nucleation score was determined as 1.5 ± 0.21. Consider HIGCIRWFSCGGSPLSMNRL, for which the amyloid nucleation score was determined as 1.24 ± 0.2.

Regarding GSEMIFYIAVVALCLCIPEG, the amyloid nucleation score was found to be 1.21 ± 0.22. Turning to TVSHDTGFGRNFFHVLLLS, the amyloid nucleation score is -0.012 ± 1.1. Regarding SSIWPIPFYILGVFKVSSVW, the amyloid nucleation score result was “inactive”. As for FVWSKSR, the figure is 2.88 ± 0.13; as for HKCGTPFAIHIYRSKQLPGV, -0.305 ± 1; as for LKGQYWVLRKGGCEGGLSAG, 1.81 ± 0.45. In the case of VMFVTSV, the amyloid nucleation score was found to be 0.201 ± 0.29.

GSELMTSLSFVCGHVAAPAD gave an amyloid nucleation score of 0.669 ± 0.54. For KVAFKIALKSSTIWFIDS the value was 2.47 ± 0.13; for EYRYCMTHYYFLRCKLFNIF, -1.06 ± 0.63. For the substance IQSFVKYKNVSRMYLTCPNL, the amyloid nucleation score was 1.2 ± 0.2. FLSYLN: the amyloid nucleation score is -0.322 ± 0.5. SVVLYMLVLLDADLSVKTRD had an amyloid nucleation score of 2.52 ± 0.06. Regarding SPKRFTCSGDCSR, the amyloid nucleation score is -0.573 ± 0.78. As for QFSLMRAIFMWASPRSWLLD, the amyloid nucleation score result is “inactive”. For DRWEPKLI the value was -0.516 ± 0.23. FRLNMAYDEPVCLMGSVHNV had an amyloid nucleation score of -1.38 ± 0.54. As for IESSGWAGRGTYSTYLASNV, the figure is 1.2 ± 0.66; as for ICCRRSMPMIINDLNFMSNS, 7.928 ± 0.035. GFRFSVIGI came in with an amyloid nucleation score of -0.101 ± 0.63. Substance CVSEDDCLDYPKV yielded an amyloid nucleation score of 2.29 ± 0.13. For LMALTPIVVVYIMGSMDLST the value was -0.436 ± 1.1. In the case of GVLMIYYWVSMCLYALLIVF, the amyloid nucleation score entry is “inactive”. As for YLRTYLW, the figure is -0.208 ± 0.49; as for QTYIFFICLVVGMYIVCGKH, -0.17 ± 0.45; as for RRGTQVFCCDYWSARGSWT, 8.749 ± 0.062. Take CKLIFYTYPDYIYILIVKSS: the amyloid nucleation score entry is “inactive”. For the substance FYLRGHACDSSWSNLVVGLW, the amyloid nucleation score came out at 4.8 ± 0.083. As to SSSWSNTHRFCLRTL, the amyloid nucleation score result is “inactive”. As to VSNPSSQMNC, the amyloid nucleation score came to 0.042 ± 0.16. For YINSMLSSYFDSLWEGSKSR the value was -0.109 ± 0.27. On to FVRSIDNSAYLLWVSLYPCM, for which the amyloid nucleation score was -0.364 ± 0.79. For RLYVKWSNSISDSRSLCVP, the amyloid nucleation score was 0.208 ± 0.16. CVMALVYACRAAHTRPMAYS: the amyloid nucleation score entry was “inactive”.

For VSKLNLLNIHCAKPFLLEL, the amyloid nucleation score amounted to 3.38 ± 0.13.

For CIINNKIQVAVKNDYLDHRE, the amyloid nucleation score is 4.69 ± 0.1. Substance VHLPCGYLKFRGLMYWRREL gave an amyloid nucleation score of 0.479 ± 0.34. For the substance ESLGDSI, the amyloid nucleation score is -0.352 ± 1.

VLCSCCLVVNIVNVLSVHSY registered an amyloid nucleation score of 8.363 ± 0.06. In the case of YNFDYTLMNYPLKAVPSEW, the amyloid nucleation score worked out at 8.286 ± 0.053.

The substance CCVMVELLVYFPM registered an amyloid nucleation score of 1.88 ± 0.098. PWSSHCSCVFNNKDLILGNT displayed an amyloid nucleation score of -0.21 ± 0.79. With NYLLMR, the amyloid nucleation score was found to be 0.414 ± 0.35.

Regarding LNFWLHD, the amyloid nucleation score was found to be 0.09 ± 1.

Regarding VIKMVMEVPVTGFPRSRNSF, the amyloid nucleation score is -0.369 ± 1.1.

As to ALLYYSMCCRFMRPTSAYHV, the amyloid nucleation score amounted to 0.246 ± 1.1. TLCRGTVLVAFGSPNITPSK gave an amyloid nucleation score of 3.89 ± 0.059. As for RIGLMNL, the figure is 3.38 ± 0.11; as for KCVVKELYWLWFHLSSVNLY, -1.23 ± 1.1. Take PSVCKWCYMKCRRRTCFSQL: the amyloid nucleation score entry was “inactive”. In turn, SGILVKLVMIFSWKGGGV returned an amyloid nucleation score of 2.96 ± 0.066. With SFSNTAAYAKEYCRSYWVLV, the amyloid nucleation score entry was “inactive”. Substance NHAQMDMKTHVINRLCKE returned an amyloid nucleation score of 0.605 ± 0.57. In the case of SDPHMHD, the amyloid nucleation score came out at 0.521 ± 0.25.

Regarding VFPDSIGN, the amyloid nucleation score entry was “inactive”. In turn, GINVSYLFIPHVGKICGNYN registered an amyloid nucleation score of 7.151 ± 0.047. As for QMGCWLGLLVDSLYLSWLVT, the figure is -0.2 ± 0.43.

In turn, MVVGIAVYRCSFNRTDLFPS gave an amyloid nucleation score of 0.655 ± 0.2. Substance LMTSYLRSPDSAPETLRE registered an amyloid nucleation score of -0.484 ± 0.49. As for SFIHDWTNFHGSLGFDYGCD, the figure is 0.112 ± 1.1; as for FAYFDDLGVLMLYQLNRMSL, -0.097 ± 1.1. As for SVFYVSKSSLTPDLDSVFLS, the figure is -0.376 ± 0.48. Consider RFDWRFCVVNRPGGKWLVVR, for which the amyloid nucleation score was 0.824 ± 0.29.

With CIGSRRGQSTSSVYRWSHYL, the amyloid nucleation score amounted to 0.192 ± 0.46. The substance LLFQNLIRRLCSMCQFGGCV had an amyloid nucleation score of -0.531 ± 0.46.
